# Laboratory results from paper PMC12134289 (Nature Communications, 2025).
# B1: WS6 S2 stem-helix broadly neutralizing antibody (antibody, V domains shown)
# VH: EVQFQQSGTVLARPGASVKMSCKASGYTFTNYWIHWVKQRPGQGLEYIGGTYPGNGDTTYNQKFKGKAKVTAVTPTSTAYMDLSSLTNEDSAVYYCTRTGSYFDYWGQGTTLTVSS
# VL: QIVLTQSPAIMSASPGEKVTISCSATSSVSYIYWYQQRPGSSPKPWIYRTSNLASGVPVRFSGSGSGTSYSLTISNMEAEDAATYYCQQYQSYPPTFGAGTKLELK
# notes: mouse-derived antibody; Whole antibody with two arms was used (200 ug/ml in PBS); also called WS6 S2 antibody; spike stalk antibody WS6; copies: 2 + 2
# Biological target: T1, extended S2 fusion intermediate of the SARS-CoV-2 spike (after S1 dissociation) (SARS-CoV-2, Victoria (probably …, UniProt P0DTC2, strain))
# T1 construct: A conformational and proteolytic state of m1, seen between the virion and ACE2VLP membranes; also called extended intermediate; extended S2 intermediate
# Experiment: cryo-electron tomography; virions pre-incubated with WS6 (200 ug/ml, 1 h, 37 °C), then ACE2VLPs and trypsin for 30 min at 37 °C, PFA-fixed
# Settings: one partner purified
binder,measurement,value
B1,binding result,binds
